Key:
CBP-Upf1-CH-HD = molecular target: T1, CBP-Upf1-CH-HD (S. cerevisiae, UniProt P30771 54-851); test: native gel or EMSA
T1 sequence: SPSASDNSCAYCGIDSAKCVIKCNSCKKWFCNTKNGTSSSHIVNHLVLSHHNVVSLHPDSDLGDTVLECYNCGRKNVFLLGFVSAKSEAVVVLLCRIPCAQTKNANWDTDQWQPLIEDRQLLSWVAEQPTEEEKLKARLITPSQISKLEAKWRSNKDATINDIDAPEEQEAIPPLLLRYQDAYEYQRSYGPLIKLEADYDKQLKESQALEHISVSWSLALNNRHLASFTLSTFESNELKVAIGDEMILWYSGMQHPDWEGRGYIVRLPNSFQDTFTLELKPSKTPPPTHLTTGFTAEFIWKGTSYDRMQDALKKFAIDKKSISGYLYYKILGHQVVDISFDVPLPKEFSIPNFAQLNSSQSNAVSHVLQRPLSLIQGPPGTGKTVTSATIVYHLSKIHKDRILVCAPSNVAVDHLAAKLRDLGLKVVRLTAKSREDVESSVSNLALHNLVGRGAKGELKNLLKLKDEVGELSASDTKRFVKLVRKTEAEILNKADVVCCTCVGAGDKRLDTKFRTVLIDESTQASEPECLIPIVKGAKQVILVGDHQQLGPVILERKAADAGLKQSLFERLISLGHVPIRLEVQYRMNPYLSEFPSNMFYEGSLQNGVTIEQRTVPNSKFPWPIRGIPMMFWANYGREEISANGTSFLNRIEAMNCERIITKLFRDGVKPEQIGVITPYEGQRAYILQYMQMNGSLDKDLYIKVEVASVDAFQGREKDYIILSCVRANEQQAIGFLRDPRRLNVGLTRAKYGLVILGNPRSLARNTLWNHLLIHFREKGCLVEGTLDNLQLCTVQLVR

[1] = molecular target: T2, CBP-Upf1-FL (S.c. Upf1 full-length) (S. cerevisiae, UniProt P30771 1-971); test: pull-down
T2 sequence: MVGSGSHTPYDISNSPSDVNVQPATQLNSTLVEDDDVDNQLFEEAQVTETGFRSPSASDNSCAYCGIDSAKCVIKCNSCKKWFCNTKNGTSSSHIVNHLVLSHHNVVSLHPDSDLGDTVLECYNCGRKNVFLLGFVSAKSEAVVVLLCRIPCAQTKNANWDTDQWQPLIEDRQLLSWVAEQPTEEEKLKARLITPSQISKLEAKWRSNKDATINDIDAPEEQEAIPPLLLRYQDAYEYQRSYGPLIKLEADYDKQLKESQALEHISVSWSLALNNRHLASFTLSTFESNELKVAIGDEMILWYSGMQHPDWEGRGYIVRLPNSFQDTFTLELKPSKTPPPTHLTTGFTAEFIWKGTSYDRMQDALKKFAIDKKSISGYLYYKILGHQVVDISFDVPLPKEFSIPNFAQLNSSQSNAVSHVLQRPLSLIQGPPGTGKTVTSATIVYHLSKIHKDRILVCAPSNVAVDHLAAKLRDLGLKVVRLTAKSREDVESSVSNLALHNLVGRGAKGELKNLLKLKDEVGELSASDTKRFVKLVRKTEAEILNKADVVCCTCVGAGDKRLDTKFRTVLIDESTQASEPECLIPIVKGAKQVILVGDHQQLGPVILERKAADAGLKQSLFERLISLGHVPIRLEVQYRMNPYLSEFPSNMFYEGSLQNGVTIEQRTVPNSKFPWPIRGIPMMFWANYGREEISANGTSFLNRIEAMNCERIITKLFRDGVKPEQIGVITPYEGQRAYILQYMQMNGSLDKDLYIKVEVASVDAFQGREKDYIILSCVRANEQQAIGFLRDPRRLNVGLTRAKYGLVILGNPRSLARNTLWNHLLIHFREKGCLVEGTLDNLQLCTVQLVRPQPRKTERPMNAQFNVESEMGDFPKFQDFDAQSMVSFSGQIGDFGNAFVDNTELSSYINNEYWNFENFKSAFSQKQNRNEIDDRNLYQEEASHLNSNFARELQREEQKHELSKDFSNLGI

B1: Nmd4-His (C-terminal His-tagged Nmd4) (natural protein)
chain: MTQYNFIIDASAFEKGLGNIKRWCSDCTEAVTLNFYIPTFTLNELDFLQQRRKSFAARESLKFIDRLDDSKFANLKVFIEFPEVLDIILWSDVMEHNDSSGKINIAKLPKRLKNLLKSCIYKCYLEGNEGLHWFLISEDPQIREMAMQCNIPSCSIVDVDSILSKDMNDKSFRESEKFNNMMLKNGTKEESENGREIIRTNFNKTVYASRGTGELWSP
- binding result (CBP-Upf1-CH-HD): binds
- binding result [1]: binds

Reference: publication PMC11897886 (Nucleic Acids Research, 2024)
